The source of these data is the domain aggregation screens of Martell et al. (2025).
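Note: 20 min heating vs room temperature control held 20 min.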

The data set in a line: soluble fraction after stress (log2 fold change); higher = more stays soluble; pooled small domains, quantitative proteomics. The settings on record: stress: 75 degC.
On to “HMNLPTSGVDALTPAERRVARMAGDGQSNREIAQTLFVTRKTVEIHLTSVYRKLGIASRAELSARL”, for which the “soluble fraction (log2)” value was -2.68. As for “HMNLQGIISQKAIVTQTIEPYETGVAKLNGEEWTAMSKDETRIEAGKLVEVVAIEGVKLIVKEVS”, the “soluble fraction (log2)” value was -0.311.

As to “HMNLVELKHAEEFNTLIIQDIGGRMKPAHTLASELVRKVFHNDDFNGIDPRKVFLSIIENSKVWFNVPFI”, the “soluble fraction (log2)” value is 0.0116. With “HMNLYENLATHVKNAIRQGVYQPGDRLPSVRRLSEQHRVSQNTAVSAYRLLESHGWLEARPQSGFFARHP” the figure was -1.42; with “HMNLYERFPIHELWKETFNETLDEEEHITFITSEFKPENIVLGQGFIAAPSKKDAVDWLKVIRTVLIFYDS”, -2.37. With “HMNMANFARIRLILELHDRGMSQDEISRSRHMSRSTITTVLRTARKKGITYAGIRKLDDAALQKLFFPDR” the figure was -4.02; with “HMNMDLGHSISKLRTDANLTQEKFAQILNVSRQTVQKWEYGEALPDIHNIIKIAKFFNISLDALVLRS”, -3.02. With “HMNMIGDVIRNLRTVSSMTQTELGQRMGVIKQTISNWEKNISTPSIDAIVKLSSIFNVPTDYLL” the figure was -1.22; with “HMNMMESNLFAVYDNDDIVKTLRQGAMEIDSLIRLMGKSSAEVLEKLTTMELQGIITRSGNIIALNN”, -0.427. Turning to “HMNMNDIKFGKYLKRVRKKYNFSKEYVANILKVKESLVSDWESGRLTLNDEYMEKLSLFYGVNLYKK”, the “soluble fraction (log2)” value is -1.57.

Turning to “HMNMPDVTVEWVKEQQAKFGLTDSDLAKSVNIDNANLARIFNQRGLTKIHKALFYYFFRAYGLQ”, the “soluble fraction (log2)” value was -3.33. Consider “HMNMRVLSEQPNKKSYQDGNLRLKVFGASFKKSDILNEALNQARVEETGLQIPKLLEVKQIDGQWTIVTE”, for which the “soluble fraction (log2)” value is -0.0583. “HMNMVSGHLQVKKGYYYAVLSFYDSKNKRHVKYISTGLPEKGNKRKAEAELVKIRNAFEPPAE”: the “soluble fraction (log2)” value was -0.516.

“HMNNESEGAIMLRQYSSLSAYLTKYNIDVNSKKAQQYASSLKLAQEKGSAEGQKYLSSISSELDD”: the “soluble fraction (log2)” value was -0.205.

Consider “HMNNIIEQIKADIKKLEEKLDKSSENALNKLEKDYSSLSTESKKKLDDAGYGARIKALRVKFAALSTQ”, for which the “soluble fraction (log2)” value was -0.0452. With “HMNNISKKIKELREQNNITQNKLANDLFIKQQTVAQWENGSRALKADSIISLAKYFNVSTDYLLGLTEN” the figure was -0.898.

In the case of “HMNNLKTKELSKIGYTNDKARSLVISIIPKHFKYHSKSEIIELLTNIKNKPEDYVSDEILGKIAETFMEKI”, the “soluble fraction (log2)” value was -1.23. Take “HMNNLSEELNVTFPRTRDQLLNILHYVQHKYGYISKVSMQEIGNHIKMPVSEIYGTVTSYSEFKI”: the “soluble fraction (log2)” value is -2.25. Turning to “HMNNLTEEAINHLVLEVKNVLLTDALFLGKATDSQLMLRIKETIDQRNGQYNIGMNDRERIARRVFARLR”, the “soluble fraction (log2)” value is -2.19. With “HMNNLVGKTKVLKSNTNIYAYKTMSGKFYSYLPNTRVRVLQDLGYINYIEVIATKRRGYVYENVY” the figure was -0.234; with “HMNNNIFVYPNPSINYINIDSDEEIWKLEIIQMSGEKINILPFSKRIDISFLSKGLYILNFNNYYIKFIK”, -0.136; with “HMNNQIFGLKFRQLRKQQHITLAKAAAGITSRQSLGNWETGKGELAFEKVLLLLKKINVQPIDFLESSIS”, -3.9. Regarding “HMNNQILYERLRDLRERNHFTQAFVSSKLNIGRATYSNYERGKRTPSLDVIMDLASFYKVPFTYF”, the “soluble fraction (log2)” value stood at 0.0974. With “HMNNQMTFSKFLNEVDAGRVVEVEIQGNNIKGVLADGNRFNTFSPNYPNLVEKLSDKGVSITAAPK” the figure was 0.174; with “HMNPASVLDGLKITSFSPTRAIVAGPGGSRIVFDNEAVVLGGIEWDVHIQRNGIEFTSQGQTVLLLFDRS”, -2.35. As for “HMNPDDEMLLTYLTKLLVDKQFIVNSNDIFEYILRRVDRTYDGIYDIVSKLDVLSLEKKRQLTIPLIKEI”, the “soluble fraction (log2)” value turned out to be 0.288. In the case of “HMNPETIHNDYKAFIKFAFSGLSYYSKVWNQNREMITPGLLETLWQKYRHLSIGEIETILEKIIKEG”, the “soluble fraction (log2)” value was -2.38. For “HMNPGNTESFPVYQKRLGEIIQTLAGKKGQDINSPEVKELVGEYDFLTKQMFQLPDATSMVMEIATAYRN”, the “soluble fraction (log2)” value was 0.0725. With “HMNPKTELMVYLKKRDEWVASQILSDVLQVSTRTIRKFVKEINMDYQTENVILSSSKGYKLNQNLLSSL” the figure was -1.19; with “HMNPLPALLRYFRQKAGLTQQDVAAALSISRSGYANYEEGRNIPNIEQAIKLSELLNHDFLYAYTLSS”, -2.53; with “HMNPNYIKKLREKNQLTQEYLAAQIGVSRPTYAQIEQGQRGLTVTEAKKMADIFSLALDDFLAEKN”, -0.135. With “HMNPSIALHDWLQSSEFKGSINLFAAALGMNPRTVEAWVYGRSTPSRRFWAKLYQITNLSRFRL” the figure was -1.08; with “HMNPYLWQRVRLLFSNVGVINNSATVDLVFSAPKGVLTEDLANNFSAALVKKGKEELGLDDIKITISVIPN”, -3.67; with “HMNQADNFNSLTKREKDVLLLVTQGESNKSIADKLVLSEVTVKSHLNSIFKKLNVTNRTQAVLVAMQMNLV”, -1.6. With “HMNQAIIVPDVKGLPLEEATTFFENNDLRYTVIDSVYTKDVPPGAIYEMVPGAGSKVKEGRIIFVTLNAR” the figure was -0.183. On to “HMNQASLTYSEFIANVESKAITRVTISGDTISGILADGKPFQTIYPMADLELLPILRRSGVDINVKEVQ”, for which the “soluble fraction (log2)” value is -1.51. With “HMNQEIELLLREPDFTSAARLAMAINERFTNSARAIDPTSVKVRMPEGLDQASVDFVARLEDIEMSPDT” the figure was 0.155; with “HMNQEQQSAVMSALKATLPDLEAALEARQFKESKQLLKTAQNQFQQLDGRNRRGFQARIQLLAGQFRELS”, -0.179. With “HMNQIDDADRKRVVDEVAGQFSSMSLTEMRSDREKLLSRIIPQVQTTLNRLGLQTIDVEGIAREVIARVG” the figure was -0.0822. With “HMNQIFAPMPGLVLEVKLSEGDVVAEGESAIILEAMKMENIIKSPINGIVKKVHVKKGQTIEKNTLIISFK” the figure was -3.1; with “HMNQLSYTERRVLQVIEGGTTKTGEIEQALAAKMSRPTVHRALDALVGANRIHRLARGEYALGPAP”, -0.501; with “HMNQRQKQLLSILEQQGDWMKGKALATLLAVSDRTIRSDIEKINREVEGSILSHPHKGYLLSVENRQIAET”, 0.107.

With “HMNQSKYQTIADELKSKILSGEYPENTTIPPELQLQKDYQVSRHTIRQAIALLANEGFLRKEKGSGTYVDV”, the “soluble fraction (log2)” value is -0.147. With “HMNQTTYTVLYSGMDPADTGKVLTALNEMGVDARTQGEDTVLVPADRADEIRLELAAQGYPTS” the figure was 0.06; with “HMNQYIFVLNEKGARITSFVDNTIPKEELIALAKQDYPNAADYIYSADGDSMLDEFMRGKLYVNGQFVAA”, -0.843; with “HMNREIVVYITGAVDNPGLYRLPLDSRLDDVLKLAVLSTNADREVLNPAQKLKDGQKIVVPYIVE”, -0.49. With “HMNRGITVIVNNEEIKMKEKAQYVVVDIFDYIDFDLTVPKGSINITLNGENTPYTASIKDGDVIEVFW” the figure was -1.09; with “HMNRIARRELMEQLFADNKITTQEQLQQLLRAEGVEVTQATISRDMRILNIVKVSDQNGNTYYKQMK”, -0.171; with “HMNRIEMTEPIIIKDLSRETGIPWVAIQKRLAQDGIMANINTTIEAEKAQLIAVDYGIELAVV”, -0.427.

In the case of “HMNRIGERIKRKRELRNLNLGELAEKVGISASALSQIEKSKSFPSVITLKSIAEQLRTTVGELIGEN”, the “soluble fraction (log2)” value was -0.191. With “HMNRIKIYPTPGSKVLSIENINFSLIHDFKILDIFGREVKNFTVSSEKNTKMLVDTSKLSDGLYFIFFNTF” the figure was -1.11. Consider “HMNRLEFLQGLKAELEGRVPHSIIQENLRYYDSYISDEAAKGQSEEDVVESLGGPRIIARTIVDAA”, for which the “soluble fraction (log2)” value worked out at 0.267. With “HMNRNEFMERLEYLLSDIPQEEKADAIAYYRDYLEEAGDDAGKAIQDFGSPERIAAMIRSELAG”, the “soluble fraction (log2)” value was -0.0288. With “HMNRQTGTVKWFNDAKGFGFITPESGPDLFVHFRSIQGAGFKSLQEGQRVTFVAVQGQKGMQADQVQA” the figure was -0.681; with “HMNRTKQIYNELLFRLDQGVYPPESKFPSESQLADEFSVSKVTMNKIVSMLASSGRLSRGVRGAGTFVSSP”, -1.33. Turning to “HMNRYPIQTEVHAFNDDIIKEAINFEMSRGGQIFFVNNRIPQLYELENTIHRLVPDARVVIGHGQMP”, the “soluble fraction (log2)” value is -0.216.

On to “HMNSFKIYPNPSSREVVRFNQAQDVKVYDTLGKLILSAKNTSAIDTKSFNTGIYFIKTANGLTKKLIV”, for which the “soluble fraction (log2)” value was -0.886. In the case of “HMNSGFEVFREVVNQGSFIGAANALGISAPAVSKQIKLLENRLGLLLLYRTTRNVTLTDIGKQLFDTLDNS”, the “soluble fraction (log2)” value was -1.98. With “HMNSKKRQAILESLRSVTDHPTAEMIYNRLKPEYPDLSLGTVYRNLAMFLEEGQVISVGTVDGQERYDAR” the figure was -0.564. With “HMNSKSFIFHIEDEEGIRLDVFLADNLPDVSRSYVQKLIDEEHVKVNGQSAKSRLKTVSGMEITVDVPAPK” the figure was -0.56; with “HMNSLGYSDFVVDVQNERVASVVIEGLIINGERRDGTKFRTVLPTIGDQRLMDDLINHNVKVLARE”, -0.375. As to “HMNSLTVPDITNRTLAEASQVLLDMGLTPIPDAVAKDGVGDDVVYAQSPPPNVGAREGDVVTITYNPA”, the “soluble fraction (log2)” value came to 0.452.

For the sequence “HMNSNISYSEFLSQVEKGTINSVEITGNSIKGIYADGGEFITFSPGDPGLIDKLQRSDIEILATPPA”, the “soluble fraction (log2)” value was 0.233.

“HMNSPSKVIDISQLRKGMFVQLDLGWMSHPFAVGSFKVSTDEQIQTLRGLGLSEVRYIPEKSDPA”: the “soluble fraction (log2)” value was -1.2. On to “HMNSQSGKGGVGYILETKYGLNLPPKMREAMGYAAKGVSDHLHKELHPDEIFDLFKKTFENVGQPYS”, for which the “soluble fraction (log2)” value was -0.271.

With “HMNSSLLGKRIKSLREDHDLTQKELSLMIGLTPKMISFYENNQRTPPLDILLKLAKIFEVSVDYLIGYA”, the “soluble fraction (log2)” value is -0.615. With “HMNSTRAPYLLDFEEDAAIREARRAGLVPRIARQPSGEPVGRVILQSHDYDYPMKRGDTILITISSG” the figure was -0.833; with “HMNSTSGIAGVGYWINQYRKKKGMSPVDKKSPLVRRVYDWVQEQYDEGRITIISDAELTRQTELAMEA”, -0.482; with “HMNSVAASLREISIKVSGTEDADKVSRLQELSQMPKLDASGIAEANTLLEQLRAKYGDLGLSVDTARGRIV”, 0.494.
